T1: human DLL1 (purchased from Acro, DL1-H52H8) (human, UniProt O00548 18-540)
T1 construct: Bought; also called hDLL1
T1 sequence (looked up): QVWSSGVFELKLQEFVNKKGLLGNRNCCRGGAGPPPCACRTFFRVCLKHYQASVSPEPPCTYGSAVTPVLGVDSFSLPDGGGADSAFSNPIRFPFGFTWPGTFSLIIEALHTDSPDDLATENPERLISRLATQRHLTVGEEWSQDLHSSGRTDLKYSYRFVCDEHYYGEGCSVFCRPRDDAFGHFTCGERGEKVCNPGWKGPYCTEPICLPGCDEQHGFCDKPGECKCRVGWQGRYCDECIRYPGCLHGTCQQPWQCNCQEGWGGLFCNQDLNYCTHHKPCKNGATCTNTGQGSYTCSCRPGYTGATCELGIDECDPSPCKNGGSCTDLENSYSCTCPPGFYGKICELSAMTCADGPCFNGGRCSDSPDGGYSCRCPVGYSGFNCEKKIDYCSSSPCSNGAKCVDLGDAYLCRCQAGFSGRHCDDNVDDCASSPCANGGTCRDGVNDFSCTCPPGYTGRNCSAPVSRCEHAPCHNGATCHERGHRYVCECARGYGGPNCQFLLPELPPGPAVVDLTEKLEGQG

T2: human DLL3, His tag (acrobiosystems, DL3-H52H4) (human, UniProt Q9NYJ7 27-492)
T2 construct: Bought; also called human DLL3 protein; free DLL3; not shown: His tag
T2 sequence (looked up): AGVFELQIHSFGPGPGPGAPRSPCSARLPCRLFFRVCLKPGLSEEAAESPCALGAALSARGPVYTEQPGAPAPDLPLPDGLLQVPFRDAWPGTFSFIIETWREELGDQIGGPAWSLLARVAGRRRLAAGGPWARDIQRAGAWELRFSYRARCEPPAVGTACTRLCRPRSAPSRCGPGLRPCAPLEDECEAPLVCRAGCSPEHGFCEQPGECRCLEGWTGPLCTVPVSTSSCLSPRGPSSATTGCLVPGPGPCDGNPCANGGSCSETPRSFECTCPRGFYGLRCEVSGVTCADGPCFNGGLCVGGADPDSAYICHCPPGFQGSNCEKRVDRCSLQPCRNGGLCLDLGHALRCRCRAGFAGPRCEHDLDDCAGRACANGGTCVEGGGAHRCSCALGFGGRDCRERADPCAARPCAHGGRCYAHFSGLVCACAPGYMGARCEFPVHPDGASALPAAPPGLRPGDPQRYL


Tests used:
[1] = target: T1, human DLL1 (purchased from Acro, …); assay: ELISA on plate-coated human DLL1 protein (1 µg/ml), HRP goat anti-human secondary, OD 450 nm [left panel]
Procedure: The chimeric antibodies obtained in Example 6 were evaluated for their binding abilities to human DLL1 (purchased from Acro, DL1-H52H8) and DLL4 (purchased from Acro, DL4-H5227) proteins using the ELISA method. The ELISA detection method involved diluting DLL1 and DLL4 proteins with PBS to a final concentration of 1 μg/ml and coating them onto 384-well ELISA plates (purchased from Corning, 3700) at 4° C. overnight. The next day, the supernatant in the plate wells was discarded, and the wells were blocked with 80 μl of 3% milk (dissolved in PBS) for 2 hours, followed by washing three times with 80 μl of PBST (0.1% Tween20). […] After washing with 80 μl of PBST (0.1% Tween20) for five times, 25 μl of HRP-labeled goat anti-human secondary antibody (Jackson, 1:10000) was added to each well and incubated at room temperature for 1 hour, discard the supernatant, and the wells were then washed seven times with 80 μl of PBST (0.1% Tween20). After adding 25 μl of TMB chromogen solution for 10 minutes, the reaction was terminated with 2M HCl, and the absorbance value at 450 nm was measured with a Microplate reader (purchased from Biotek, Elx808). […] To assess the cross-reactivity of the antibodies with mouse and monkey DLL3, mouse DLL3-expressing plasmid pCMV3-mDLL3 (purchased from Beijing Yiqiao, MG58052-UT) and monkey DLL3-expressing plasmid pCMV3-rheDLL3 (purchased from Beijing Yiqiao, CG90919-UT) were used to construct overexpressing cell lines. The construction of overexpressing cells was as described in Examples 2-3. The binding abilities of the chimeric antibodies to these cells were determined by flow cytometry to assess the cross-reactivity of the antibodies with different species.

[2] = target: T2, human DLL3, His tag (acrobiosystems, …); assay: BLI (Octet 96e), antibody on sensor, DLL3-His 100-3.13 nM in solution
Procedure: To assess the affinity of antibodies for human DLL3 protein, this study employed the BLI method to detect the binding kinetics curves of immobilized antibodies with free DLL3. The method was conducted according to the instrument's user manual (supplier: Fortebio, equipment model: Octet 96e). Briefly, AMC sensors were equilibrated for 60 s with Loading Buffer/Sample dilution buffer (1×PBS, pH7.4, with 0.1% BSA and 0.02% Tween-20) to obtain Baseline 1. The antibodies to be detected were diluted with Loading Buffer to a concentration of 10 ug/ml and bound to the equilibrated sensors, after which the sensors were re-equilibrated with Loading Buffer to obtain Baseline 2. The antibody-loaded sensors were then placed in human DLL3, His tag (supplier: acrobiosystems, catalog number: DL3-H52H4) diluted with Sample Dilution Buffer to concentrations ranging from 100 to 3.13 nM for 90 s to obtain the antibody-protein binding curve. Then, the sensors combined with antigen were placed in the Sample Dilution Buffer again and dissociated for 180 s, and the dissociation curve was obtained. The k-on and k-off values of the antibody-protein binding were calculated based on the binding and dissociation curves, and the KD values were calculated, with the results shown in Table 4.

Row | binding result [1] | Kd [2] | koff [2] | kon [2] | Binder
1 | no binding (tested: 20 µg/ml) | 5.37 nM | 0.0012 s⁻¹ | 223000 M⁻¹ s⁻¹ | ch13C2 (antibody, human IgG1, kappa, V domains shown, Chimeric: murine variable regions on human IgG1 heavy and kappa light constant regions; also called chimeric antibody 13C2) VH: EVKLVESGGGLVKPGGSLKLSCAASGFAFSSYDMSWVRQTPEKRLEWVATISSGGSYTYYPDSVKGRFTISRDNGRNTLYLQMSSLRSEDTALYYCASPLLGLRFAYWGQGTLVTVSA VL: QAVVTQESALTTSPGETVTLTCRSSTGAVTTINYANWVQEKPDHLFTGLIGGTNNRAPGVPARFSGSLIGDKAALTITGAQTEDEAIYFCALYYSNHWVFGGGTKLTVLR
2 | no binding (tested: 20 µg/ml) | 0.739 nM | 0.000962 s⁻¹ | 1.3e+06 M⁻¹ s⁻¹ | ch19C7 (antibody, human IgG1, kappa, V domains shown, Chimeric: murine variable regions on human IgG1 heavy and kappa light constant regions; also called chimeric antibody 19C7) VH: EVQLQQSGPELVRPGASVRMSCKASGYTFTYYVMHWVKQKPGLGLEWIGYINPYNDGTEYNEKFKGKATLTSDKSSSTAFMELSSLTSEDSAVYYCARWLLREYAMDYWGQGTSVTVSS VL: DIQMTQSPASLSASVGETVTITCRASDNIHNYLAWYQQKQGKSPQLLVYNAKTLADGVPSRFSGSGSGTQYSLKINSLQPEDFGSYYCQHFWSTPWTFGGGTKLEIKR
3 | no binding (tested: 20 µg/ml) | 0.0381 nM | 6.58e-05 s⁻¹ | 1.73e+06 M⁻¹ s⁻¹ | ch26D9 (antibody, human IgG1, kappa, V domains shown, Chimeric: murine variable regions on human IgG1 heavy and kappa light constant regions; also called chimeric antibody 26D9) VH: EVQLQQSGPELVKPGASVKMSCKASGYTFTTYVMHWVKQKPGQGLEWIGYINPYNDDTNYNEKFKGKATLTSDKSSSTAYMELSSLTSEDSAVYYCARWGLTGTGDYYAMDYWGQGTSVTVSS VL: DIQMTQSPASLSASVGETVTITCRASGNVHNYLAWYQQKQGRSPQVLVYNAKTLADGVPSRFSGSGSGTQYSLKINSLLPEDFGSYYCQHFWTTPWTFGGGTTLEIKR
4 | no binding (tested: 20 µg/ml) | 0.0158 nM | 2.79e-05 s⁻¹ | 1.76e+06 M⁻¹ s⁻¹ | ch23G2 (antibody, human IgG1, kappa, V domains shown, Chimeric: murine variable regions on human IgG1 heavy and kappa light constant regions; also called chimeric antibody 23G2) VH: QVQLQQSGPELVRPGVSVKISCKGSGYTFTDYAIHWVKQSRAKSPEWIGIVSTDSGKTSFNQKFKGKATMTVDKSSTTAYMELVRLTSEDSAIYYCARNPYYDYDGYAMDYWGQGTSVTVSS VL: DIQMTQSSSYLSVSLGGRVTIICKASDHINNWLAWYQQKPGNAPRLIISGATSLETGVPSRFSGSGSGKDYTLSITSLQTEDVATYYCQQYWSIPYTFGGGTKLEIKR
5 | no binding (tested: 20 µg/ml) | 0.0521 nM | 6.31e-05 s⁻¹ | 1.21e+06 M⁻¹ s⁻¹ | ch33F11 (antibody, human IgG1, kappa, V domains shown, Chimeric: murine variable regions on human IgG1 heavy and kappa light constant regions; also called chimeric antibody 33F11) VH: EVQLQQSGPELVKPGASVKISCKTSGYTFTENTMHWVKQSHGESLEWIGGINPRNGVTSYNQKFKGKATLTVDKSSSTAYMELRSLTSEDSAVYYCTNTYYRDYFDYWGQGTTLTVSS VL: NIVMTQSPKSMSMSVGERVTLSCKASENVGTYVSWYQQKPDQSPKLLIYGASNRYTGVPDRFTGSGSPTDFTLTISRMQAEDLAHYYCGQTYTYPLTFGAGTKLELKR
6 | no binding (tested: 20 µg/ml) | 0.0597 nM | 7.4e-05 s⁻¹ | 1.24e+06 M⁻¹ s⁻¹ | ch1A5 (antibody, human IgG1, kappa, V domains shown, Chimeric: murine variable regions on human IgG1 heavy and kappa light constant regions, expressed in 293F cells; also called chimeric antibody 1A5) VH: EVQLQQSGPELVKPGASVKISCKTSGYTFTESAMHWVKQSHGKSLEWIGGINPNNGGISYSQKFKGKATLTVDKSSSTAYMELRSLTSEDSAVYYCGSSYYRDYFDYWGQGTTLTVSS VL: NIVMTQSPESMSMSVGERVTLSCKASENVGTYVSWYQQKPDQSPKLLIYGASNRYTGVPDRFTGSGSATHFTLTISSVQAEDLADYHCGQSYSYPLTFGAGTKLELKR
7 | no binding (tested: 20 µg/ml) | 0.466 nM | 0.000684 s⁻¹ | 1.47e+06 M⁻¹ s⁻¹ | ch6A2 (antibody, human IgG1, kappa, V domains shown, Chimeric: murine variable regions on human IgG1 heavy and kappa light constant regions; also called chimeric antibody 6A2) VH: EVQLQQSGPELVKPGASVKISCKASGYTFTDYNMNWVKQSQGKSLEWIGYIYPYNGGTGYNQKFKTKATLTVDNSSSTAYMEFRSLTSEDSAVYYCARSDPYYTMDYWGQGTSVTVSS VL: IIVMTQTPKFLLVSAGDRVTISCKASQSVNNDVAWYQQKPGQSPKLLIYFTSNRFTGVPDRFTGSGYGTDFTFTISSVQAEDLAVYFCQQDHNSPYTFGGGTKLEIKR
8 | no binding (tested: 20 µg/ml) | 0.204 nM | 0.000279 s⁻¹ | 1.37e+06 M⁻¹ s⁻¹ | ch10B1 (antibody, human IgG1, kappa, V domains shown, Chimeric: murine variable regions on human IgG1 heavy and kappa light constant regions; also called chimeric antibody 10B1) VH: DVKLVESGGGLVKPGGSLKLSCAASGFTFSNYTISWVRQTPEKRLEWVATFSSGGSYTYYSDSVKGRFTISRDNAKNTLYLQMSSLKSEDTAMYYCSRDRRSDGYYHLYAMDYWGQGTSVTVSS VL: DIQMTQTTSSLSASLGDRVTISCRASQDISHYLNWYQQKPDGTVKLLIYYTSRLHSGVPSRFSGSGSGTAYSLTISNLEQEDIATYFCQQGYTLPLTFGAGTKLELKR
9 | no binding (tested: 20 µg/ml) | 0.0702 nM | 0.000121 s⁻¹ | 1.72e+06 M⁻¹ s⁻¹ | ch15G2 (antibody, human IgG1, kappa, V domains shown, Chimeric: murine variable regions on human IgG1 heavy and kappa light constant regions; also called chimeric antibody 15G2) VH: EVQLQQSGPELEKPGASVRISCKASGYSFTDYNMHWVKQSNGKSLEWIGNIDPYYGGTNYNQKFEGKATLTVDKSSSTAYMQLKSLTSEDSAVYYCARGGNNYGDYWGQGTTLTVSS VL: DIQMTQSPASLAASVGETVTITCRASENIYYSLAWYQQKQGKSPQLLIFNANSLEDGVPSRFSGSGSGTQYSMKINSMQPEDTATYFCKQAYDVPWTFGGGTKLEIKR
10 | no binding (tested: 20 µg/ml) | 0.09 nM | 0.000134 s⁻¹ | 1.49e+06 M⁻¹ s⁻¹ | ch32E8 (antibody, human IgG1, kappa, V domains shown, Chimeric: murine variable regions on human IgG1 heavy and kappa light constant regions; also called chimeric antibody 32E8) VH: QVTLKESGPGILQPSQTLSLTCSFSGFSLSTSGMGVGWIRQPSGKGLEWLALIWWDDVKRYHPALKSRLTISKDTSSSQVFLKIASVDTADTATYYCARIAEVTGQVGLHYAMDYWGQGTSVTVSS VL: QTVLTQSPAIMSASLGERVTMTCTASSSVNSSSLHWYQQKPGSSPKLWIYTTSNLASGVPARFSGSGSGTSYSLTISSMEAEDAATYYCHQFHRSPFTFGSGTKLEIKR

Source: patent US20250114467A1 (SHANGHAI FUDAN ZHANGJIANG BIO PHARMACEUTICAL, published 2025)
